According to US20190038762A1 (Takeda / Millennium, published 2019):

Biological target: T1, guanylyl cyclase C (GCC), myc-tagged, full-length, expressed on HEK293-GCC#2 cells (UniProt P25092 24-1073, limits assumed)
T1 construct: whole, on cells; also called GCC antigen; GCC-expressing cells
Assay: indirect immunofluorescence flow cytometry on HEK293-GCC#2 cells
Experimental: HEK293-GCC#2 and vector control cells were grown in standard cell culture medium supplemented with 10% fetal bovine serum (FBS). […] This centrifugation-wash step was repeated once more before cells were re-suspended at a concentration of 5×10⁶ cells/mL in 3% FBS/PBS, and added to the experimental wells of a V-bottom 96-well plate in 100 μL aliquots (˜500,000 cells). The plate was centrifuged for 5 min at 1200 rpm.
Following centrifugation, supernatant was removed from each well and replaced with 50 μL of primary antibody-drug conjugate solution. […] The 96-well dish was covered and incubated at 4° C. (on ice) for 1 hour before solutions were removed from the wells and the cells were washed twice in 100 μL of 3% FBS/PBS (without Ca²⁺ or Mg²⁺).
After completion of the second wash, 50 μL of secondary antibody solution was added to each experimental well, and the covered 96-well plate was placed at 4° C. (on ice) for 1 hour. The plate was then centrifuged, and the supernatant was replaced with 100 μL of 3% FBS/PBS (without Ca²⁺ or Mg²⁺). This centrifugation-wash step was repeated for a total of two cycles. The cells were finally reconstituted in 200 μL of PBS (without Ca²⁺ or Mg²⁺) and loaded onto the BD FACS Canto flow cytometer (BD Biosciences, Franklin Lakes, N.J.). Data were analyzed using FACS II Canto system software and the appropriate filter settings.

T1 sequence (P25092 24-1073 limits assumed): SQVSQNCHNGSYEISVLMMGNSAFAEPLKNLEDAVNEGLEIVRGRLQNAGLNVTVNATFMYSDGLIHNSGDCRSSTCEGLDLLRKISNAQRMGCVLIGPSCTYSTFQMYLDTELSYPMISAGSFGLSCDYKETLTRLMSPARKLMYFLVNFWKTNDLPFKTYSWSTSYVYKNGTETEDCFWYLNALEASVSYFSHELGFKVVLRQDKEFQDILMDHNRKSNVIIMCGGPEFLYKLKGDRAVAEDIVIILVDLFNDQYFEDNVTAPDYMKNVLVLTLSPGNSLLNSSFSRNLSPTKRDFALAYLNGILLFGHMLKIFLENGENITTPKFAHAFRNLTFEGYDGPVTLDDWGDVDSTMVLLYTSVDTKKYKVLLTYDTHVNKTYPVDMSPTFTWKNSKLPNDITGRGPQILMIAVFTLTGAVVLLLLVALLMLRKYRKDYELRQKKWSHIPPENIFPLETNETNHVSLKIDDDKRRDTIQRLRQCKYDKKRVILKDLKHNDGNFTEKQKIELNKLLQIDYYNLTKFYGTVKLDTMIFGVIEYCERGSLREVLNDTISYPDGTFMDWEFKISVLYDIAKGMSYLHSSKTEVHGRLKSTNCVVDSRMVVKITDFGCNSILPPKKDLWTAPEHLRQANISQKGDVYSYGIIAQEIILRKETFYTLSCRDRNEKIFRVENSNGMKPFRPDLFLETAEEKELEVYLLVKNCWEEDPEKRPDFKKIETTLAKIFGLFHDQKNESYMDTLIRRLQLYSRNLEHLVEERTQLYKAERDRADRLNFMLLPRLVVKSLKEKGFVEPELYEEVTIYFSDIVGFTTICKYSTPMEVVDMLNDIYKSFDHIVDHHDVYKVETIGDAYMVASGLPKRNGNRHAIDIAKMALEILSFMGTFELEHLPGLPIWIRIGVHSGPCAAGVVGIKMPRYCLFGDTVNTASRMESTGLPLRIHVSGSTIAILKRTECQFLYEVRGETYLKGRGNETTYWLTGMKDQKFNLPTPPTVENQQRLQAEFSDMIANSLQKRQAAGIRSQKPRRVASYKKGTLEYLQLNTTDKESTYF

B1: 5F9 antibody (anti-GCC human monoclonal antibody 5F9, hIgG1/hKappa) (antibody, V domains shown)
VH: QVQLQQWGAGLLKPSETLSLTCAVFGGSFSGYYWSWIRQPPGKGLEWIGEINHRGNTNDNPSLKSRVTISVDTSKNQFALKLSSVTAADTAVYYCARERGYTYGNFDHWGQGTLVTVSS
VL: EIVMTQSPATLSVSPGERATLSCRASQSVSRNLAWYQQKPGQAPRLLIYGASTRATGIPARFSGSGSGTEFTLTIGSLQSEDFAVYYCQQYKTWPRTFGQGTNVEIKR
notes: The hybridoma antibody was IgG2, kappa; also called hu5F9; Human 5F9 antibody
  Affinity: 35 ng/mL
